Where “and” joins values, the source holds several entries; their conditions need not be identical. Identical values can stand only once. Entries after “also recorded” stand apart in the source; their conditions may differ. Marks after values point to notes of the source that are not given here. Non-standard residues stand in square brackets, D forms with d. No end group written: not given here. Abu = CC[C@H](N)C(=O)O
What was measured:
[1] = target: T1, HLA-A2.01 molecule (Homo sapiens, UniProt P04439, D140Y/D185E/D98H/E176V/E277Q/G131W/G231S/I119V/I121R/I166T/I218V/L300P/L318F/N151K/N90K/P208A/P217A/Q86G/Q94H/R138H/R169H/T345S); test: Inhibition of binding of 125I-F10V (HBVc.18-27) to soluble HLA-A2.01 molecules
T1 construct: stability conferred on the peptide MHC complex thus formed at the cell surface by using tap T2 cells expressing HLA-A*02.01; endogenous in cells; host or cells: T2 cells
Description: The product of the chimeric genes resulting from the translocation (12;21) is a neoprotein which is expressed in the leukemic cells of common B-ALL type and which can be detected by Western blot. […] In a first step, the capacity of 9 junctional nonapeptides to inhibit the binding to soluble HLA-A*0201 was measured.

[2] = target: T1, HLA-A2.01 molecule; test: Stabilization of HLA-A2.01 molecules at the surface of T2 cells (RA and DC50); assay type: binding; settings: for Measurement of stabilization DC50 (half-life of peptide-HLA-A2.1 stabilized complexes): overnight incubation, indirect immunofluorescence/FACS at 0, 2, 4 and 5 h; for Measurement of stabilization RA: ratio of concentrations of tested versus reference peptide to attain 20% of maximal number of stabilized molecules
Excerpt: A person well-acquainted with the field of the invention will know how to obtain different mutated and derived peptides and will also know how to determine which of all of the peptides obtained are the peptides having adequate biological activity. […] The term DC50 characterizing the half-life of the peptide HLA-A2.01 complex is described in the publication “H-2 class 1 knockout, HLA-A2.1-transgenic mice: a versatile animal model for preclinical evaluation of antitumor immunotherapeutic strategies” (European Journal of Immunology: 29:3112-21, 1999). This half-life ought normally to make it capable of inducing in vivo or in vitro a cytotoxic immune response. Preferably, the peptide obtained will slow down the growth of lymphoblastic tumor cells when administered to a leukemic receiver and will trigger a cytotoxic T response to the leukemic cells of common type B-ALL with t(12;21) of the leukemic receiver.
It is known that the affinity of an epitopic peptide for the MHC predicts in part its immunogenic potential. This affinity can be measured by its binding capacity to class I MHC and by the stability conferred on the peptide MHC complex thus formed at the cell surface by using tap T2 cells expressing HLA-A*02.01.
These preliminary results have subsequently been used to optimize further the R9M peptide. […] The binding tests performed in vitro by using the soluble HLA-A2.01 molecules and T2 cells have shown that the binding to and the stabilization capacity for the HLA-A2.01 molecules was greater than that of the wildtype R9M peptide (Table 2).

[3] = system: EL4 S3-Rob-HHD cells expressing the TEL/AML1 fusion protein; test: Tumor model in HHD mice immunized with peptide and injected with tumor cells; settings: groups of 8 HHD mice immunized beforehand; for development of tumors (in words): FIG. 3; for survival of the mice (in words): FIG. 4
[4] = system: TEL/AML+ EL4-HHD cells; test: Tertiary CTL response of immunized HHD mice against TEL/AML+ EL4-HHD cells; assay type: in vivo; settings: responder = at least 10% specific lysis, TEL/AML+ EL4-HHD targets
Excerpt: (§1) The immunogenicity of the mutated peptides was then studied in the HHD transgenic mouse (H2 class 1—negative and transgenic for HLA-A*02.01). These mice are described in European Journal of Immunology, 29:3112-21, 1999. Groups of more than 10 HHD mice were immunized by the synthetic peptides (emulsion in IFA with the helper peptide HBVcore128-140 as described previously in Firat et al., Eur. J. Immunol. 29:3112-21 (1999)).
(§2) On the other hand, the mutated peptides (having single or double substitutions) induce a strong CTL activity and lyse the TEL AML* tumor lines in the majority of cases (Table 3 and Table 4). The enhanced immunogenicity of the mutated R9M peptides was then confirmed in vitro by using mononucleated cells of 5 healthy HLA-A*02.01 subjects (FIG. 2).

[5] = system: RMAS-HHD cells stimulated with the mutated peptide; test: Secondary CTL response of immunized HHD mice against RMAS-HHD cells stimulated with the mutated peptide; assay type: in vivo; settings: for R/T (mice responders versus total of mice tested): responder = at least 10% specific lysis
Excerpt: as §1, §2

[6] = system: RMAS-HHD cells stimulated with the wildtype peptide; test: Secondary CTL response of immunized HHD mice against RMAS-HHD cells stimulated with the wildtype peptide; assay type: in vivo; settings: responder = at least 10% specific lysis, targets with wildtype peptide
Excerpt: as §1, §2

[7] = system: RMAS-HHD cells stimulated with the mutated peptide; test: Tertiary CTL response of immunized HHD mice against RMAS-HHD cells stimulated with the mutated peptide; assay type: in vivo; settings: for R/T (mice responders versus total of mice tested): responder = at least 10% specific lysis, targets with mutated peptide
Excerpt: as §1, §2

[8] = system: HLA-A2.1*T2 target cells; settings: results in the public domain; cited from earlier work
[9] = secondary response, targets with mutated peptide

Row | percentage inhibition of the binding of F10V, ratio peptide/125I-F10V 10/1 [1] | percentage inhibition of the binding of F10V, ratio peptide/125I-F10V 25/1 [1] | Measurement of stabilization DC50 (half-life of peptide-HLA-A2.1 stabilized complexes) [2] | Measurement of stabilization RA [2] | Substance | R/T (mice responders versus total of mice tested) [7] | R/T (mice responders versus total of mice tested) [4] | R/T (mice responders versus total of mice tested) [5, 9] | R/T (mice responders versus total of mice tested) [6] | other results
1 |  |  | 0 h | >100 | YMPIGRIAE [Y9E] |  |  |  |  | 
2 | 25% | 37% | 2 to 5 h | 1.4 | YIAESILGM [Y9M-5S] | 9/10 | 6/10 | 9/10 | 3/10 | 
3 |  |  | <2 h | >100 | YIGRIAECI [Y9I] |  |  |  |  | 
4 |  |  | <2 h | >100 | YIAECILGM [Y9M] |  |  |  |  | 
5 | 79% | 87% | 2 to 5 h | 0.9 | YIAEAILGM [Y9M-5A] | 9/10 | 5/10 | 8/10 | 7/10 | 

The next lines start with the substance.

Row | Substance | percentage inhibition of the binding of F10V, ratio peptide/125I-F10V 10/1 [1] | percentage inhibition of the binding of F10V, ratio peptide/125I-F10V 25/1 [1] | Measurement of stabilization DC50 (half-life of peptide-HLA-A2.1 stabilized complexes) [2] | Measurement of stabilization RA [2] | R/T (mice responders versus total of mice tested) [7] | R/T (mice responders versus total of mice tested) [4] | R/T (mice responders versus total of mice tested) [5, 9] | R/T (mice responders versus total of mice tested) [6] | other results
6 | YIAEα-butILGM (YIAE[Abu]ILGM) [Y9M-5α-but] | 26% | 26% | 2 to 5 h | 0.7 |  |  |  |  | 
7 | RIAEα-butILGM (RIAE[Abu]ILGM) [R9M-5α-but] | 27% | 49% | 2 h | 2 | 8/10 |  |  |  | development of tumors (in words) [3]: capable of slowing down the development of tumors; survival of the mice (in words) [3]: prolonging the survival of the mice; R/T (mice responders versus total of mice tested) ([4]; listed as R9M-5a-but): 7/10 and 10/10; R/T (mice responders versus total of mice tested) ([5]; secondary response, targets with mutated peptide, listed as R9M-5a-but): 7/10 and 8/10; R/T (mice responders versus total of mice tested) ([6]; listed as R9M-5a-but): 5/10 and 8/10
8 | ILKEPVHGV [HIV 1 rt.476, reference compound] |  |  | 5 h | 1 |  |  |  |  | 
9 | RIAESILGM [R9M-5S] | 74% | 75% | 2 h | 2.2 | 6/10 | 11/14 | 11/14 | 6/14 | development of tumors (in words) [3]: capable of slowing down the development of tumors; survival of the mice (in words) [3]: prolonging the survival of the mice
10 | AMPIGRIAE [A9E] | 47^d % | 57% | 2 to 4 h | 10-100 |  |  |  |  | 
11 | PIGRIAECI [P91] |  |  | 0 h | >100 |  |  |  |  | 
12 | RIAEAILGM [R9M-5A] | 59% | 72% | <2 h | 3.2 | 1/10 | 6/10 | 2/10 | 2/10 | development of tumors (in words) [3]: capable of slowing down the development of tumors; survival of the mice (in words) [3]: prolonging the survival of the mice; % of clear lysis (maximal lysis for each mouse responder) ([7]; E/T ratio 60:1, targets with mutated peptide): (20) %
13 | RIAECILGM (listed as Homo sapiens) [R9M, reference compound] | 64% | 69% | <2 h | 2.9 | 2/10 | 5/10 | 1/18 |  | % of clear lysis (maximal lysis for each mouse responder) ([5]; secondary response, E/T ratio 60:1, targets with mutated peptide): (13) %; CTL response induced in immunized HLA-A2.01 transgenic (HHD) mice (in words) ([5]; synthetic peptide in IFA with helper peptide HBVcore128-140): inconstancy and the weakness of the CTL responses induced; also recorded: inconstancy and weakness of the CTL responses induced; also recorded: weak specific CTL response; capacity to induce CTLs from the peripheral blood of healthy donors (in words) [8]: has been demonstrated; stability of the peptide/HLA-A2.01 complex at the surface of T2 cells (in words) [2]: quite unstable; also recorded: not very stable

— US8303957B2, “Mutated immunogenic peptides derived from R9M, polynucleotides coding for same and therapeutic uses thereof” (Institut Pasteur, priority 2000, dated 2012)
